One block for each substance: values may come before it.
Assays:
[1] = molecular target: human CTLA-4 (human) (UniProt P16410); assay: flow cytometry, CHO cells expressing huCTLA4
Target sequence in this assay (P16410 36-223): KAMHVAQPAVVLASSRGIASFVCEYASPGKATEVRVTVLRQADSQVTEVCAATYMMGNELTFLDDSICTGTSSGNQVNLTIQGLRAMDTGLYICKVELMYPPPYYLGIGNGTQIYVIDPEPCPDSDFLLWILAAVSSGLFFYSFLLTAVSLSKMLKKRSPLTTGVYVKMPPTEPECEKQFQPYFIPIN

[2] = molecular target: PD-L1 (human) (UniProt Q9NZQ7); assay: flow cytometry, CHO cells expressing huPD-L1
Target sequence in this assay (Q9NZQ7 19-290): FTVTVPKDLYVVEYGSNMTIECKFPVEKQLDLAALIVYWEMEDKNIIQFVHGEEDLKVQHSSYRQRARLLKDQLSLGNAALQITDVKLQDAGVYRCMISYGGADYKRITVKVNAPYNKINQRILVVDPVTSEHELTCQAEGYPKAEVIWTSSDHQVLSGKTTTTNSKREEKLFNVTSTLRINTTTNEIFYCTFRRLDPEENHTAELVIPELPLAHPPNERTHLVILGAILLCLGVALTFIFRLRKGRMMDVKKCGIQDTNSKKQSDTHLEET

[3] = molecular target: CD28 (human) (UniProt P10747); assay: flow cytometry, Jurkat cells (CD28)
[4] = molecular target: human CTLA-4 (human) (UniProt P16410); assay: flow cytometry, CHO cells stably expressing CTLA4
Target sequence in this assay (P16410 36-223): as the sequence (P16410 36-223) above

[5] = molecular target: PD-L1 (human) (UniProt Q9NZQ7); assay: flow cytometry, CHO cells stably expressing PD-L1
Target sequence in this assay (Q9NZQ7 19-290): as the sequence (Q9NZQ7 19-290) above

[6] = molecular target: CD28 (human) (UniProt P10747)
[7] = molecular target: PD-L1 (human) (UniProt Q9NZQ7)
Target sequence in this assay (Q9NZQ7 19-290): as above

[8] = molecular target: CD28 (human) (UniProt P10747); remark: listed apart in the source
[9] = molecular target: CD28 (human) (UniProt P10747); assay: flow cytometry, Expi293F cells transfected with CD28
[10] = molecular target: human CTLA-4 (human) (UniProt P16410); assay: flow cytometry, Expi293F cells transfected with CTLA-4
[11] = molecular target: PD-L1 (human) (UniProt Q9NZQ7); assay: flow cytometry, Expi293F cells transfected with PD-L1
[12] = molecular target: CD28 (human) (UniProt P10747); assay: flow cytometry, Jurkat/IL2 reporter cells (endogenous CD28)
[13] = molecular target: CD28 (human) (UniProt P10747); remark: listed apart in the source
[14] = molecular target: PD-L1 (human) (UniProt Q9NZQ7); remark: listed apart in the source
Target sequence in this assay (Q9NZQ7 19-290): as above

Substance: variant CD80 IgV-Fc E35D/M43I/M47V/K89N (Fc fusion)
MFI at 33.3 nM [1]: 278000 MFI
MFI at 33.3 nM [2]: 19200 MFI

Substance: CD80 IgV-Fc H18Y/E35D/V68M/A71G/R94Q/E95V (Fc fusion)
MFI at 33.3 nM [3]: 455 MFI
Fold change to WT CD80 [4]: 18.6 fold
MFI at 33.3 nM [4]: 19400 MFI
Fold change to WT CD80 [5]: 25.9 fold
MFI at 33.3 nM [5]: 1840 MFI

Substance: CD80 E35D/D46V/L85Q IgV-Fc (effector) (Fc fusion)
Jurkat/IL2 reporter RLU at 50 nM, K562/OKT3/PD-L1 aAPC [6]: 4130 RLU
Jurkat/IL2 reporter RLU at 50 nM, K562/OKT3 aAPC without PD-L1 [6]: 7020 RLU
Jurkat/IL2 reporter RLU at 50 nM, K562/OKT3/PD-L1 aAPC [7]: 4130 RLU
IL-2 release, primary T cells + K562/OKT3 (No PD-L1), 100 nM [8]: 25400

Substance: CD80 IgV-Fc H18Y/E35D/D46E/M47I/V68M/R94L (Fc fusion)
MFI at 33.3 nM [4]: 19200 MFI
MFI at 33.3 nM [5]: 2080 MFI

Substance: CD80 IgV-Fc H18Y/E35D/M47L/Y53F/V68M/A71G/K93R/E95V (Fc fusion)
MFI at 33.3 nM [3]: 2190 MFI
MFI at 33.3 nM [4]: 19800 MFI
MFI at 33.3 nM [5]: 9340 MFI

Substance: CD80 K54M/L70Q/A91G/Y164H ECD-Fc (SEQ ID NO 1399) (Fc fusion)
MFI [9]: 68 MFI
parental ratio [9]: 0.71
MFI [11]: 5 MFI
parental ratio [11]: 0.08
MFI [10]: 131 MFI
parental ratio [10]: 0.63

Substance: CD80 A71D/L72V/E95K IgV-Fc (effector) (Fc fusion)
Jurkat/IL2 reporter RLU at 50 nM, K562/OKT3/PD-L1 aAPC [6]: 4030 RLU
Jurkat/IL2 reporter RLU at 50 nM, K562/OKT3 aAPC without PD-L1 [6]: 7110 RLU
Jurkat/IL2 reporter RLU at 50 nM, K562/OKT3/PD-L1 aAPC [7]: 4030 RLU
IL-2 release, primary T cells + K562/OKT3 (No PD-L1), 100 nM [8]: 21300

Substance: CD80 E35D/M47I/L70M IgV-Fc (effector) (Fc fusion)
Jurkat/IL2 reporter RLU at 50 nM, K562/OKT3/PD-L1 aAPC [6]: 3870 RLU
Jurkat/IL2 reporter RLU at 50 nM, K562/OKT3 aAPC without PD-L1 [6]: 5780 RLU
Jurkat/IL2 reporter RLU at 50 nM, K562/OKT3/PD-L1 aAPC [7]: 3870 RLU
IL-2 release, primary T cells + K562/OKT3 (No PD-L1), 100 nM [8]: 25300

Substance: CD80 E23G/A26S/E35D/T62N/A71D/L72V/L85M IgV-Fc (effector) (Fc fusion)
Jurkat/IL2 reporter RLU at 50 nM, K562/OKT3/PD-L1 aAPC [6]: 4140 RLU
Jurkat/IL2 reporter RLU at 50 nM, K562/OKT3 aAPC without PD-L1 [6]: 7860 RLU
Jurkat/IL2 reporter RLU at 50 nM, K562/OKT3/PD-L1 aAPC [7]: 4140 RLU
IL-2 release, primary T cells + K562/OKT3 (No PD-L1), 100 nM [8]: 27000

Substance: CD80 A91G ECD-Fc (Fc fusion)
MFI [11]: 85 MFI
parental ratio [11]: 1.21
MFI [10]: 200 MFI

Substance: CD80 H18Y/A26T/E35D/A71D/L85Q IgV-Fc (inert) (Fc fusion)
Jurkat/IL2 reporter RLU at 50 nM, CHO/OKT3/PD-L1 aAPC [13]: 1160 RLU
Jurkat/IL2 reporter RLU at 50 nM, CHO/OKT3 aAPC without PD-L1 [13]: 926 RLU
Jurkat/IL2 reporter RLU at 50 nM, CHO/OKT3/PD-L1 aAPC [14]: 1160 RLU

Now from value to substance:

Jurkat/IL2 reporter RLU at 50 nM, K562/OKT3/PD-L1 aAPC [6]: 5220 RLU
Jurkat/IL2 reporter RLU at 50 nM, K562/OKT3 aAPC without PD-L1 [6]: 8750 RLU
Jurkat/IL2 reporter RLU at 50 nM, K562/OKT3/PD-L1 aAPC [7]: 5220 RLU
IL-2 release, primary T cells + K562/OKT3 (No PD-L1), 100 nM [8]: 20600
Substance: CD80 H18Y/A26T/E35D/A71D/L85Q IgV-Fc (effector) (Fc fusion)

MFI [9]: 26 MFI
MFI [10]: 38 MFI
Substance: CD80 E24G/L25P/L70Q/A91G/I118V/T120S/N152T ECD-Fc (Fc fusion)

Jurkat/IL2 reporter RLU at 50 nM, K562/OKT3/PD-L1 aAPC [6]: 2270 RLU
Jurkat/IL2 reporter RLU at 50 nM, K562/OKT3 aAPC without PD-L1 [6]: 1200 RLU
Jurkat/IL2 reporter RLU at 50 nM, K562/OKT3/PD-L1 aAPC [7]: 2270 RLU
IL-2 release, primary T cells + K562/OKT3 (No PD-L1), 100 nM [8]: 8380
Substance: CD80 E35D IgV-Fc (effector) (Fc fusion)

MFI [9]: 61 MFI
Substance: CD80 M38T/L70Q/E77G/A91G/I118V/T120S/T130A/N152T ECD-Fc (Fc fusion)

Jurkat/IL2 reporter RLU at 50 nM, K562/OKT3/PD-L1 aAPC [6]: 663 RLU
Jurkat/IL2 reporter RLU at 50 nM, K562/OKT3 aAPC without PD-L1 [6]: 1250 RLU
Jurkat/IL2 reporter RLU at 50 nM, K562/OKT3/PD-L1 aAPC [7]: 663 RLU
Substance: WT CD80 IgV-Fc (Fc fusion)

MFI [9]: 105 MFI
MFI [11]: 9 MFI
parental ratio [11]: 0.13
MFI [10]: 200 MFI
parental ratio [10]: 0.96
Substance: CD80 V20L/L70Q/A91S/I118V/T120S/T130A ECD-Fc (Fc fusion)

Jurkat/IL2 reporter RLU at 50 nM, K562/OKT3/PD-L1 aAPC [6]: 5040 RLU
Jurkat/IL2 reporter RLU at 50 nM, K562/OKT3 aAPC without PD-L1 [6]: 8680 RLU
Jurkat/IL2 reporter RLU at 50 nM, K562/OKT3/PD-L1 aAPC [7]: 5040 RLU
IL-2 release, primary T cells + K562/OKT3 (No PD-L1), 100 nM [8]: 26800
Substance: CD80 E35D/M47L IgV-Fc (effector) (Fc fusion)

MFI [9]: 5 MFI
Substance: CD80 M38V/T41D/M43I/W50G/D76G/V83A/K89E/I118V/T120S/I126V/T130A ECD-Fc (Fc fusion)

MFI at 33.3 nM [12]: 7540 MFI
Substance: variant CD80 IgV-Fc E35D/D46V/M47I/A71G/F92V (Fc fusion)
